Assay results published in the supplement of paper PMC12636428.

Tested on: Saccharomyces cerevisiae
Assay: transcriptional activation domain activity (GFP:mCherry ratio, weighted mean of sorted bins, harmonized to initial dataset scale) (arbitrary fluorescence ratio units); higher = stronger transcriptional activation
Settings: beta-estradiol 1 µM; induction time 4 h
Method in brief: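 After a 1:5 dilution into SC with 1 uM beta-estradiol and 4 hours at 30 °C, yeast diploids carrying a GFP reporter and URA3-integrated barcoded tiles were sorted into 8 bins by GFP:mCherry ratio. The tiles were fused to an estradiol-inducible synthetic transcription factor. Barcodes were sequenced, tiles below 50 reads were discarded, and activation activity was taken as the read-weighted mean of bin median fluorescence, averaged across barcodes and linearly mapped onto the initial dataset scale.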

Sequence | transcriptional activation domain activity
MMAMAFDPGFRDDEVVQFLLYELGVSSLLFCFVCFGDFVDFLDPFAFWVDLLF | 48600
VGEEGEEKESMRVRVREEMVAQATSLAFLRNVNAIGEETTSLLDTAARLVRIG | 63700
DSGGDRSTSPDSDRDKENKKASDKTEDSDKETQENGEEEKGGEKERESKKGEK | 16700
ILVMWTVISCPVFSFPDRGHGSMLFFLFKLCLVMLLTYLVTMLWFLCVFSIVV | 52100
KEKAKAKAKERKREERRKEKEKRAKEKEREKKRLREKEKRRKEKEKEKRRKEK | 14900
MLRDYWLILIVNCQTIGCKLPIVMWSPLCLFLTLNHGLLWLWMCLALRFFSLF | 35000
HSDLLNDMDSASQRASHNASGFPNFLDTSCSSSFDDHFIFTNNLPFLNNNSIN | 60800
EGDRKGRGRGRGRDDRGPRDRNREREDRDEKNDKKRAREEGNDEKPAKNADSK | 54500
VSLLTVIVPIGITCRMVIWICALGMVISSLCVDTILLNKAYKFSFIYIVVRHT | 55300
MIVRLSSVPVSGCSFVVIEALLDFLVLPLRHFNLFIAPTSFFSHLYVFFFFGR | 56700
FHSLLSPFHASFLSLFYPHSLSCFYLFPFLHAFVFLFHFRCGFLGVSCILLSA | 73200
MFSHFNSSDLTSTFFFFMPVLGFILCPFFLLESMVCALVGWPCFLLSYCLPCL | 68900
KPATTTASSAQPSTTASATPGGLFGGGAQSGSSTPAGGLFGAKPAAAPSPAPA | 44900
GKPGGGEAKTGERKGEGRGGRGKGGPGGKKDGPPPGEGKGAVVASAASTSATP | 34700
MSLGELAVLWVKRARHLGQSLLRVVLVSYAVDLPANCVALLRTGIRVLMLNMI | 37300
EARRSTREREREEGKSSGGGKGRRGRSGKPRGGGRGAGASGANPGPGAAAGAE | 29100
MGGGGGACSCSIAYIHGFLSSLFFLLFATTFFHYSFCLLLLWMLIFFWLFAFV | < 6570
LYLRLLVGYLFMILVLLCSHNMMIFLLRSLHHLLTFLTCPLHFFLLLLLLMIT | 39000
DKKEAKPVNGESSKDTKPSGKEKEKELKDNAKPKEAKKGEGNKGGLAKAAAAP | 25800
SNGKEMAFQYYSFVKEWGHVLGRYPGEIERCLIGTLGNIFFSGVKPIANSYFL | 45400
VFCMLYTLLHILAACLHYHCFSHLAPPYQTLLWYSYFNVIIVGLLLFWYCELV | 35100
AATTAEPERKKSSKDRKSPEIVSEAKKSKDSPGEVKRSSSKREKEKEKEKSSS | 37300
MSFRFPTLFFFSLTLFLVSPFWFYLLFSVFFFLISLVFLESHFFCLGSINTLY | 39800
MGVLFCVWSKFMGLHYSLVFFFVYPFSHCFSLLFPFFFFTIMSWYIVFYHTCF | 70300
SATIFSPFDTHLLEPVPSSSSESSAEVMFHGKQMKNFLIDINSFTNQQQQAQD | 38700

Sequence | transcriptional activation domain activity
HLFFLKNHHCFLSFIFFLFLFTLFFYFIFFLKLQFRKNNNYLFFLYKKFLTFF | 36800
MAMGLMCKACLLTPQHFLPLLWPSYPRPFFFFFFFYYSYCCSCCDCISIFGLN | 43400
HRGVSVGIQFAPAGSSWYVEPHKCLIWKSFYFLMMYFMHMCVEYVLLLRVLAL | 41200
MVQNWEFFVFFFSFFIFSFCEVYMCAVCGLWCGSPGKLLGLLFLVLLCSLFFF | 40300
ANDDDGEEQEEQEEKPKKKRKRTASTPAETAGAGPSKPKPRPRPKKTSAVVPP | 28200
TRSFNIMLGMVTFWGVFSLFAIAFQCGLPAPWVFIPSECPTGGYLYYPVIILN | 56000
GNTVAIFVPFWEYCVLFPSELRIWKRMLRARPFRWHFAPIMTIILRYLLIIFA | 45200
GSMGKVKLGVSSISGEKVAIKIIPRFTSTAAAHRPPPPTPSNEPSGSSRRPSS | 7050
EAEDTAAARLKRAKSERMRLRTRVVQAMWAEASEEERGAAEAEVAREKEAIRA | 30400
RLPNNANSTTGLNDNDYNLDDTNNDNTNSMQSILEDFVSSEEALKFMPDAGRD | 30400
MLPSPGETKNHAKSQSEIIQMLTDEFWANYNSGWEELINQSEFSTLFDDYKDN | 116000
RVPPNSSQKTGEPSSSSTKPVASSAVRNRVPPNSSQKTGEPSSSSTKPVASSA | 52900
TLDTVMRDTANMDWVRFLPLSLLFTSFIFSPLSFSLFRMYVHALLFFCFTFTP | 49600
YGLIYSILLHLCAVFISSLRRLTVLRELLRMLFLFSCFWFAVSISYMSVLYTI | 49300
TVMVFGSDEKRVKAVGDMLKANLNVKGGGKGTRWSGKRTGVWSDSREGAAVTG | 47800
WIKWTFLFARYFPLLAGLCGRVIDSIVLYRNPIPIPLNALRIWYICQVLILHL | 78200
MLLLPYAVFCIISFFHSFLFFLLLGGWLGCIFYLRVVHMHWLVRWFVWLVHGG | 65300
VGSWTFGSIMVFGFSYLALTVLPNLCLNCPYSTPVSEMSWHLSHRLLLFILLL | 31800
DLCFWLLDVCVLFSPGSCRLHQLSDKYFVEQLVLMNVFLIQVLLKFVFPLGRA | 74800
SVVLGVLHMSLSICTQVPNFIHFGRPSSIITEFLPQILFLHCLFGYLVFMIIY | 79100
IAKEIGKRLGFDENSEISYLAGIWSHCIAQQLIWNVAGGLLRVRGWLWKINLS | 79900
TTAETTAPAAETDAAAKVEEAKPAAATTEAKPAAAAPKPAADKKVKRSSTILQ | 10600
DRRYRISRGGSRMNQVVENTVSRWVGMLPTWRCGLLLHAFVHLKKVYWCPFLR | 72700
MHCRDIMRFNEMELAKLRLLLGSNCQALRNTASLLSRNLACSKIIYLSVRLGE | 21000
MGCKLIILFSSAMLFLFFSVLFLLLPLFFLSPTTCFLSFWLRLWLLLMVHWGR | 47600

Sequence | transcriptional activation domain activity
MQGSGKLSGLIFLSCFFSLLFFFFSFLFFYFFLLSNQLLFFCPNLVLDVALFT | 18000
KNEKADKAEKTEKTEQQQSSGARRNRRGRGGNRGGEGGKESKEGGRPAAAAKT | 11200
CCMVWGRRWLIVLFPIFCLITVFVFKILEVFTGAFSWVENVRFLVVYLSCILA | 34800
GIMILCCTLVVLTRLMGHRILPYTYFTSCLLMQIDFILGMIWDMDPFKVRRFC | 44600
IGFYFLEYGQNCFRDDSDGPCWAGRYMVNVWNDLAVLRRLICYAAVQLARQHR | 40900
MHPPTHYRLLSPPLFPYIFFFQVGFLLRFFSLFFSLVSLVLILCVTFFFFFFG | 57500
GAGPVGYGPQGAGEGDGESKSDSETMRTATTQPPPKPKQLYFIYVLASHYGLG | 61700
ATWWHVFGTRVFKPVPTYVGEFQTWLQAFIHLSWDWRLSTHMWFRYNFHMWTI | 68900
TEEDAINQSKESNMISINEMLQKQMDFELLGENHLKETQDYLALYKKAYGIEF | 113000
REQQQRNDFPEGTHRMKVVAERWKTLSDDQREISFISSLLYAYVHVELRLRLG | 46500
ETEGFAKMAKAMGFGVYGLPSYIIKHIYNNCTHLFVVWHYGTLLIHLTAYPSF | 73700
MSHSASTSASTSTAAGEPSAKRMRLGTRSCAECRRRKVRCIVPPGARVCEGCS | 75900
MIVLVLLFLVFCLLLLVGMVDERGMAGDMYKLYRTPASCRVLALSNPIVRGAW | 52800
IFFSQFGRYWIVFPGILFLTSVALSLILIVMLCIPGINLWTTISINLAIPYWA | 27300
ERLPVDLAVVCTIVERLFGLAVMTARLRKLGSLHGVLLPRTWVLALWRDFIRF | 67500
PLEKLMCLRTSLSLLSAAADKYMQENRLTVFHTSVASDDLILLLACALTQTHL | 50200
LRKSQDRLWAERPWYFYPMYFNEHGNGIFPEVVHLNDAVVIGVLHYYLIQVLL | 46400
PEPVAAPAPANDGFSEVQHNRGGRGRGGQYQGEGRGGYRGRGRGGPRGGGEFR | 24500
MAIFRIYVLIAVVRLGDILTDIYVVGGVLLLLRYQVFLMFFHFFFFLFFYTGL | 43700
LLKYAEWLIKPEQNNGSWVADVLWPVLNLDLQWISSHWNESSWDLWWPPIWGG | 32400
SKEREQRERSVEQEQPRRKNGRRRRDKRDEQRRRNRRRSSSSRRESRSSRRES | 44600
LLIPTISFFFCATNCYVLTKDSQLDRGYIYWVLRCSAVHLMLSFFTLLFSLCF | 48100
SLQLLYFMPVRYYTYHKRGYHYFLADLCYFVNVLLLLSIWIFPNSRRLMISTY | 65100
MYHALHKSGLSDTYIIQDVGVPFDAVEAFYKWLHETLHIYPLWLCPIRVRRYT | 44700
